From the RNAGym collection of RNA variant scans (doi:10.1073/pnas.2313332121)

B1: TPR t1 (parent)
chain: GACCAAUCUGCCCUCAGAGCUCGAGAACAUCUUCGGAUGCAGAGGAGGCAGGCUUCGGUGGCGCGAUAGCGCCAACGUCCUCAACCUCCAAUGCAUCCCACCACAUGAUGAUGCCUGAAGAGCCUUGGUUUUUUG

Variants of: B1
Test: polymerase ribozyme fitness, log enrichment relative to wild type (log ratio); higher = more active; in vitro selection for triplet polymerase activity
In short: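 Input and output libraries were sequenced on Illumina after a single in vitro selection round, run in triplicate on PCR-built, transcribed mutant libraries of each subunit of a heterodimeric triplet polymerase ribozyme. Selection annealed libraries to a biotinylated primer, the partner subunit and triplets, incubated them frozen at −7 °C, then gel-excised extended constructs for streptavidin-bead capture and RT-PCR. Genotypes with ≥10 input reads and ≥1 read per output were kept. Fitness is the logarithm, taken in base 2, of genotype enrichment divided by wild-type enrichment, using inverse-variance-weighted replicate averages.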

Variant	polymerase ribozyme fitness (log ratio)
A43U A46U G47U G117U	-7.8
G71U C123U	0.812
C4A C40U C53U G57U A83C G113U	-5.8
G36A C73U	-0.561
A68U C124G	-4.93
A2U G71A	-2.72
C56A G71U C85U C102A C124U	-4.27
U7G C53G A90G	0.0166
A43U C70G G117A	-6.87
U55C C56U U78C G93A C101A	-1.12
C11U G77A	-1.92
A37C G93U A111G	-2.63
C56G A91C C123A	0.632
U9A C12U A37G	-0.0422
A6C C11A C72G C85U U112G	-2.46
C72A C80U	0.231
C89G C94U	-0.951
C8U U21A A50C C53G G60A C88U U125C	-5.83
C22G C53U C70A G120A G128U	-4.71
C70U C94U	-0.0504
G60A G93C	-1.2

Variant	polymerase ribozyme fitness (log ratio)
C8U A91U U130A	-1.26
G51A G61A U125A	-2.21
C3G U129C	-1.37
C53A C72U C85U G122A	-0.784
C40G C72U U78C	-1.15
U55G U109A	-5.03
C73G C101A	-1.3
U14A A50C C80G G120U	-5.23
A18G U21C G110A	-2.38
C31G G71U C94G A121G U132C	-7.12
U32C C86U C101U C114A	-4.6
A5C U92A C101U C115A U133G	-4.61
C8G U21C C22G G117C C123U C124A	-4.09
C62U C97U	-0.489
G19A A41U C56G U59A	-5.05
C22U G63U	-4.76
C13A A90G	-1.55
G69A A111G	-2.61
C53U C62A G93C C104U	-1.76
A5U G113C	-2.11
C13A G57C C85A	-1.99

Variant	polymerase ribozyme fitness (log ratio)
C73A U109G	-4.56
A37U G61U C114A U130A	-1.52
A6G C12A A46U C53A C56A	-1.28
C8U C15U G45C A50U	-1.64
C20U G47A C49G C123A U125G	-2.77
G10A C97A G120U	-4.42
G42U G44U G45A U54G C89G	-2.57
A37U C86A U112G G128A	-3.56
C20U G52A G120A	-1.57
U9G G107U	-3.93
C20G C72G	-4.5
C3U C8A A16G A43C C79A C88U C124A U125A U132C	-3.17
G39U G117A	-2.1
C22U C82A A84C G93C U112C	-4.92
C49A U132A	-0.997
C72U A83G C85U	-1.39
U7A C11G U55A	0.0928
C8G G47A U130C	0.26
G69C A111C	-0.894
C11U G110A	-1.63
C70U U92A	-4.11

Variant	polymerase ribozyme fitness (log ratio)
G35A A66G	-6.38
G39A G71U	-0.815
G39C C115U C124A	-0.672
C4A C56U	-0.847
U59C C79A G122A C123A U132A	-2.39
C13A C20U	-3.77
G71U G93C	-2.12
C104G A105U A111C G122A	-7.2
U129A U130C	-0.653
U7G C40G A50U	-0.282
A2U G61U G113C C114U	-3.06
G39A A41U G69U	-0.975
C22U U38C U78C	-4.58
G10A G47U A83G	-2.7
C13U C62A A118U G122A	-2.35
C80U C94G	-1.73
G69C G117U	-3.02
C15A C98U	-3.62
G39U U96A C115A U126G	-6.69
U7A C40U U54A C56A C73A G77U G117A G122A	-3.15
U21A C49U G63U	-3.27
